Assay: yeast display, Sf9 membrane polyspecificity reagent, FACS + sequencing; frameworks hold sequencing errors
Outline: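 Genes from sorted yeast were amplified by colony PCR, read by MiSeq 2 × 250 sequencing and filtered on CDR length. These cells carried a synthetic nanobody library in Saccharomyces cerevisiae BJ5465 and were sorted by FACS into low and high (top ~1%) gates on anti-HA and streptavidin fluorescence. Polyreactivity is labelled according to the gate of origin.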

| Sequence | polyreactivity (PSR sort gate) |
| --- | --- |
| QVQLVESGGGLVQAGVSLRLSCAASGSIFRYYAMGWYRQAPGKERELVAAITVGGSTYYADSVKGRFTISRDNAKNTVYLQMNSLKPEDTAVYYCAADGDKRTKGYDYWGQGTQVTVSS | high polyreactivity |
| QVQLVESGGGLVQAGVSLRLSCAASGSIFSKYVMGWYRQAPGKERELVAAISWSGTRTYYADSVKGRFTISRDYAKNSVYLQMNSLKPEDTAVYYCAKYIFTTGLGYWGQGTQVTVSS | high polyreactivity |
| QVQLVESGGGLVQAGVSLRLSCAASGSIFSYNAMGWYRQAPGKERELVAAINNGGSTYYADSVKGRFTISRDNAKNTVYLQMNSLKPEDTAVYYCAAQSGHYAEYNYWGQGTQVTVSS | high polyreactivity |
| QVQLVESGGGLVQAGVSLRLSCAASGSSLARNAMGWYRQAPGKERELVAAISRRSGSTYYADSVKGRFTFSRDNAKNTVYLQMNSLKPEDTAVYYCAKLGIVHQYDYWGQGTQVTVSS | low polyreactivity |
| QVQLVESGGGLVQAGVSLRLSCAASGSTFTTNVMGWYIQAPGKERELVAAISWSSGSTYYADSVKGRFTISRDNAKNTVYLQMNSLKPEDTAVYYCAARLVIFYPYSRYYYWGQGTQVTVSS | high polyreactivity |
| QVQLVESGGGLVQAGVSLRLSCAASGTFYSNAMGWYRQAPGKERELVAAINTSGSTNYADSVKGRFTISRDNAKNTVYLQMNSLKPEDTAVYYCAAGIVVTGYDYWGQGTQVTVSS | low polyreactivity |
| QVQLVESGGGLVQAGVSLRLSCAASGTTFGLNPMGWYRQAPGKERELVAAISTSGGSTYYADSVKGRFTISRDNAKNSVYLQMISLKPEDTAVYYCAAEVDAGYDYSQYYYWGQGTQVTVSS | low polyreactivity |
| QVQLVESGGGLVQAGVSLRLSCAATGFPLQVYDMGWYRQAPGKEMELVADISGSGDSTNYADSVKGRFTISRDNAKNSVYLQMNSLKPEDTAVYYCAAEVRGGYYGYDYWGQGTQVTVSS | low polyreactivity |
| QVQLVESGGGLVQAGVSLRLSCAPSGRTFIYYAMGWYRQAPGKERELVATINGITGSTYYADSVKGRFTNSRDNAKNTVYLQMNSLKPEDTAVYYCAKVPRKYRAWMDYWGQGTQVTVSS | high polyreactivity |
| QVQLVESGGGLVQAGVSLRLSCASSGYTYHVYAMGWYRQAPGKERELVAAISTGDDTTFYADSVKVRFTISRDNAKNTVYLQMNSLKPEDTAVYYCAAAYGTPYGGYDYWGQGTQVTVSS | low polyreactivity |
| QVQLVESGGGLVQAGVSLRLSSAASGIIFAYYTMGWYRQAPGKERELVAAISWSGGSTYYADSVKGRFTISRDNAKNTVYLQMNSLKPEDTAVYYCAVVSRRTRLPYYYWGQGTQVTVSS | high polyreactivity |
| QVQLVESGGGLVQARGRLRLSCSASGRTFYGYAMGWYRQATGKERELVASISWSTGSTHYADSVKGRFTISRDNAKNTVYLQMNSLKPEDTAVYYCAAPFWRDSYVQIDYDFWGQGTQVTVSS | low polyreactivity |
| QVQLVESGGGLVQARGSLRLICAASGRTFSYNTMGWYRQAPGKERDLVASITRSGGSTYYSDSVKGRFTISRDNAKNTVYLQMNSLKPEDTAVYYCAADSYPGSTYYDSLDYWGQGTQVTVSS | low polyreactivity |
| QVQLVESGGGLVQARGSLRLRFAASGSTFPYYAMGWDRQAPGKERELVATITKRGGRKYYADSVKGRFTISRDNAKNTVYFLMTSLKPEDTAVYYCAARFRFAVTYDYWGQGTQVTVSS | high polyreactivity |
| QVQLVESGGGLVQARGSLRLSCAASGFTFAFYAMGWYRQAPGKEMELVAAITGSGGSTYDADSVKGRFTISRDNAKNTVYLQLNSLKPEDTAVYYCFTRGGYYLYYSYYYWGQGTQVTVSS | high polyreactivity |
| QVQLVESGGGLVQARGSLRLSCAASGFTFRSYTMGWYRQAHGKERELVAAITSRGTSTYYADSVKGRFTISLDNAKNTVYLQMNSLKPEDTAVYYCAAPIYNGYASWQVYYWGQGTQVTVSS | high polyreactivity |

| Sequence | polyreactivity (PSR sort gate) |
| --- | --- |
| QVQLVESGGGLVQARGSLRLSCAASGIIRSNAMGWYRQAPGKERELVAVISSSGGRTYYADSVKGRFTISRDNAKNTVYLQMTSLKPEDTAVFYCPAQVQVGAFSYYYWGQGTQVTVSS | high polyreactivity |
| QVQLVESGGGLVQARGSLRLSCAASGLTVGYNAMGWYRQARVKEWELVGAISSNGGRTYYADSVKGRFTISRDNAKNTVYLQMNSLKPEDTAVYYCNARYTGSSLYYWGQGTQVTVSS | high polyreactivity |
| QVQLVESGGGLVQARGSLRLSCAASGNTFVTNAIGWYRQAPGKVRELVAAINSSGGSTYYADSVKGRFTISRDNAKNTVYLQMNSLKPEDTAVYYCAADPLGITSGYGYWGQGTQVNVSS | low polyreactivity |
| QVQLVESGGGLVQARGSLRLSCAASGRIFLINGMGWYRQAPGKERELVAVITQSGGTYYADSVKGRFTISRDNAKNTVYLQMNSLKPEDTAVYYFAASSYGASRGYWGQGTQVTVSS | high polyreactivity |
| QVQLVESGGGLVQARGSLRLSCAASGRIFVRKAMGWYRQAPGKERELVASISTSSGSTYYADSVKGRFTISRDNAKNTVYLQMNSLTPEVTAVYYCNAGYHFVHWPHVKHKKFDYWGQGTQVTVSS | low polyreactivity |
| QVQLVESGGGLVQARGSLRLSCAASGRTFDLYAMGWYRQSPGKERELVAAITKGGGSTYYADSVKGRFTISRDNAKNTVYLQMNSLKPEDTAVYYCAARKYKRIYRISSGIGYYWGQGTQVTVSS | high polyreactivity |
| QVQLVESGGGLVQARGSLRLSCAASGRTFFENAMGWYRQAPGKERELVATITTTGGSTYYADSVKGRFTISRDNAKNTVYLQMNSLKPEYTAVYYCATRGWYLGSRGYRNRYGYWGQGTQVTVSS | high polyreactivity |
| QVQLVESGGGLVQARGSLRLSCAASGRTFGNYAMGWYRQSPGKERELVASINTGGSTSYADSVKGRFTISRDNAKNTVYFLMNSLKPEDTAVYYCARSFFWYRLHVYWGQGTQVTVSS | low polyreactivity |
| QVQLVESGGGLVQARGSLRLSCAASGRTFRSYAMGWYRQAPGKERELVAVITRSTGNTYYADSVKGRFTISRDNAMNTVYLQMNSLKPEDTAVYYCARQYRRYDYWGQGTQVTVSS | high polyreactivity |
| QVQLVESGGGLVQARGSLRLSCAASGSIFDPNAMGWSRQAPGKVRELGAAMTSGGGSTYYADSVKGRFTISRDNAKNTVYLQMNSLKPEDTAVYYCNNVFVLPYNFVAWFDYWGQGTQVTVSW | low polyreactivity |
| QVQLVESGGGLVQARGSLRLSCAASGSIFGKNVMGWYRQAPGKERELVAAISRSGGRTYYADSVKGRFTISRDNAKNTVYLQMNSLKPEDTAVYYCAADGQPIGQQTYDYWGQGTQVTVSS | high polyreactivity |
| QVQLVESGGGLVQARGSLRLSCAASGSIFNRNAMGWYRQAPGKERELVAAISRRGGSTYYADSVKGRFTISRDNEKNSVYLQMNSLKPEDTAVYYCAAATRKTEYDYWGQGTEVTVSS | low polyreactivity |
| QVQLVESGGGLVQARGSLRLSCAASGSIFSIYAMGWYRPAPGTERELVASITRSSGRTYYADSVKGRFTISRDNAKNTVYLQMISLKPEDTAVYYCAKDYIPLALDADDYWGQGTQVTVSS | low polyreactivity |
| QVQLVESGGGLVQARGSLRLSCAASGSISDYYAMGWYRQAPGKERELVAAISWDGGSTYYADSVKGRFTISRDNAKNTVYLQLNSLKPEDTAVYYCNAGSGASVGNNILYDYWGQGTQVTVSS | low polyreactivity |
| QVQLVESGGGLVQARGSLRLSCAASGSTFRYYAMGLYRQAPGKERELVAAITSSGTSTYYADSVKGRFTISRDNAKNTVYLQMISLKPEDTAVYYCAAPPVYKWVSSRYDYWGQVTQVTVSS | low polyreactivity |
| QVQLVESGGGLVQARGSLRLSCAASGSTFYYYAMGWYRQAPGKEREFVAAISWTGGTTYYADSVKGRFTISRDIAKNTVYLQMNSLKPEDTAVYYCNADPWWDSDWGYDYWGQGTQVTVSS | low polyreactivity |

Source: the nanobody polyreactivity screen of Harvey et al. (2022)
